Test results from the Immune Epitope Database (IEDB).

What was measured:
Test in all cases: IEDB peptide-MHC binding, purified MHC/competitive/radioactivity; filed as Kd, often an IC50 or EC50 that approximates it; ≥ and ≤ were set here for values at or beyond the usual limits of such assays
[1] = target: HLA-A*03:01
[2] = target: HLA-A*11:01
[3] = target: HLA-A*31:01
[4] = target: HLA-A*33:01
[5] = target: HLA-A*68:01
[6] = source organism: Vaccinia virus WR
[7] = source organism: Dengue virus 3 Martinique/1243/1999
[8] = source organism: Dengue virus 1 Singapore/S275/1990
[9] = source organism: Mammarenavirus machupoense
[10] = source organism: SARS coronavirus Tor2
[11] = source organism: Dengue virus 2 Peru/IQT2913/1996
[12] = source organism: Mammarenavirus brazilense
[13] = source organism: Mammarenavirus lassaense
[14] = source organism: Dengue virus 2 Jamaica/1409/1983
[15] = source organism: Dengue virus 1 Brazil/97-11/1997
[16] = source organism: Vaccinia virus Copenhagen
[17] = source organism: Dengue virus 4 Philippines/H241/1956

| Sequence | Kd [1, 6] [nM] | Kd [2, 6] [nM] | Kd [3, 6] [nM] | Kd [4, 6] [nM] | Kd [5, 6] [nM] | further results |
| --- | --- | --- | --- | --- | --- | --- |
| TVKMGAFMY | 523 | 25.3 | 3040 | 8710 | 48.9 | – |
| LLKILDNLR | 19600 | 629 | 20.9 | 86 | 700 | – |
| AQRRGRVGR | – | – | – | – | – | Kd [3, 7]: 13.2 nM |
| GAAVTLNRIK | 1750 | 1040 | ≥ 40600 | ≥ 70000 | 8350 | – |
| ALDGTFQRK | 12.5 | 30.4 | ≥ 37900 | ≥ 77700 | ≥ 47200 | – |
| ISNMLNIMNR | – | – | – | – | – | Kd [3, 8]: ≥ 38100 nM; Kd [4, 8]: 157 nM |
| EVRIPVDLVK | ≥ 64800 | 1660 | 9020 | 17000 | 656 | – |
| SVSIILANER | 2520 | 77.1 | 655 | 1640 | 0.432 | – |
| EKFGHLCKYH | – | – | – | – | – | Kd [1, 9]: ≥ 70000 nM; Kd [2, 9]: ≥ 69700 nM; Kd [3, 9]: ≥ 70000 nM; Kd [4, 9]: ≥ 70000 nM; Kd [5, 9]: ≥ 70100 nM |
| LSCAVHLIIY | 10600 | ≥ 61400 | 5370 | 3830 | 361 | – |
| AVVYRGTTTY | – | – | – | – | – | Kd [1, 10]: 123 nM; Kd [2, 10]: 492 nM; Kd [3, 10]: 5040 nM; Kd [4, 10]: 19300 nM; Kd [5, 10]: 861 nM |
| TIISEEYLSK | 39.5 | 1.74 | 6710 | 8850 | 16.6 | – |
| KAMLYIIRR | 1200 | 14.5 | 0.319 | 150 | 19.8 | – |
| IIDAKNDDWK | 6380 | 15900 | ≥ 70000 | ≥ 70000 | 2270 | – |
| AIYVFCISLK | – | – | – | – | – | Kd [1, 10]: 161 nM; Kd [2, 10]: 489 nM; Kd [3, 10]: 11300 nM; Kd [4, 10]: ≥ 48900 nM; Kd [5, 10]: 8800 nM |
| ALNDTWKIEK | – | – | – | – | – | Kd [1, 11]: 60.3 nM; Kd [2, 11]: 398 nM |
| VFKGFSDKVR | ≥ 70100 | 2640 | 201 | 925 | ≥ 26800 | – |
| CANGWIQYDK | 888 | 599 | 73.6 | ≥ 27000 | 19.1 | – |
| LVEYGTVVNK | – | – | – | – | 212 | – |
| SIHLTKTDK | 6.74 | 9.38 | 9440 | ≥ 48300 | 140 | – |
| EVYTQLCDHR | – | – | – | – | – | Kd [5, 7]: 14.3 nM |
| TALAKCNLDH | – | – | – | – | – | Kd [1, 12]: ≥ 70000 nM; Kd [2, 12]: ≥ 69700 nM; Kd [3, 12]: 878 nM; Kd [4, 12]: ≥ 46900 nM; Kd [5, 12]: ≥ 35100 nM |
| TCQGSDDIKK | – | – | – | – | – | Kd [1, 13]: ≥ 70000 nM; Kd [2, 13]: 13000 nM; Kd [3, 13]: 6330 nM; Kd [4, 13]: ≥ 24200 nM; Kd [5, 13]: 4450 nM |

| Sequence | Kd [1, 6] [nM] | Kd [2, 6] [nM] | Kd [3, 6] [nM] | Kd [4, 6] [nM] | Kd [5, 6] [nM] | further results |
| --- | --- | --- | --- | --- | --- | --- |
| ITWIGMNSR | – | – | – | – | – | Kd [3, 14]: 11.2 nM; Kd [4, 14]: 35.4 nM |
| LLNETAKVIK | 1590 | 230 | 2430 | 15400 | 4000 | – |
| MALFQPANK | – | – | – | – | – | Kd ([2]; source organism: Mammarenavirus juninense): 48 nM |
| DLTQIFEVY | 11100 | 463 | 1370 | 938 | 857 | – |
| QQFANVISK | 55.6 | 2.38 | 1320 | ≥ 28300 | 710 | – |
| STSAADIKR | ≥ 30400 | 13.2 | 1300 | ≥ 22100 | 5.19 | – |
| YTISSESLVY | 831 | 31.8 | ≥ 27900 | ≥ 70000 | 21.4 | – |
| QLLKILDNLR | ≥ 70100 | 15100 | 69.1 | 5630 | 561 | – |
| MIRPQPMEHK | – | – | – | – | – | Kd [1, 15]: 8.89 nM |
| ILARRPTPK | – | – | – | – | – | Kd [1, 16]: 1.31 nM; Kd [2, 16]: 46 nM; Kd [3, 16]: 1560 nM; Kd [4, 16]: ≥ 67100 nM; Kd [5, 16]: 1780 nM |
| EMVDELVTR | ≥ 78000 | ≥ 40900 | 28.5 | 94.3 | 2.54 | – |
| LLLRKLTSK | – | – | – | – | – | Kd [1, 14]: 28.8 nM |
| TSTGNYNYK | – | – | – | – | – | Kd [1, 10]: 1460 nM; Kd [2, 10]: 21.1 nM; Kd [3, 10]: 151 nM; Kd [4, 10]: 12200 nM; Kd [5, 10]: 37.2 nM |
| AMCTNTFVLK | – | – | – | – | – | Kd [1, 7]: 20.3 nM; Kd [2, 7]: 20.9 nM |
| TVGPWHLGK | – | – | – | – | – | Kd [1, 17]: 17 nM; Kd [2, 17]: 24.5 nM |
| IALGLMALK | – | – | – | – | – | Kd [2, 7]: 42.7 nM |
| WSYYCGGLK | – | – | – | – | – | Kd [1, 14]: 1.28 nM |
| TIFAGHLKCR | – | – | – | – | – | Kd [5, 15]: 16.9 nM |
| MTATPPGSR | – | – | – | – | – | Kd [5, 14]: 18.4 nM |
| MTIIGRRLQR | – | – | – | – | – | Kd [3, 17]: 15.1 nM; Kd [4, 17]: 32.7 nM; Kd [5, 17]: 10.5 nM |
| LVTPSMTMR | – | – | – | – | – | Kd [3, 7]: 343 nM |
| TTILTPMLR | – | – | – | – | – | Kd [2, 17]: 387 nM; Kd [4, 17]: 36.4 nM; Kd [5, 17]: 10.9 nM |
| TAKEVALLR | – | – | – | – | – | Kd [4, 17]: 17.3 nM; Kd [5, 17]: 75.1 nM |
